For 167 variants, self-cleavage results are on record in the RNAGym collection of RNA variant scans (doi:10.7554/elife.80360).

To fix the notation:
B1: Hairpin Ribozyme (parent)
chain: GUCCUCUUUCACGUGCGCGUGAAAGAGAGAAGUGAACCAGAGAAACACACGUUGUGGUAUAUUACCUGGUA

This series covers variants of B1. The experiment in a line: self-cleavage, relative activity (ratio to wild type); higher = more cleavage; co-transcriptional.
Regarding G17C A24G, the self-cleavage amounted to 0.88. On to G32A U58C, for which the self-cleavage turned out to be 0.184. Under C6A A11G stands 0.635; under C48U G51U, 0.165. Consider U2A U62A, for which the self-cleavage came to 0.194. Then U5G C16A, with 0.435; and U60G U63A, with 0.173. Under A31C A35C stands 0.069. Under G40U C65G stands 0.099; under U5C U53A, 0.535; under A23U A36G, 0.681.

For A22C U63C, the self-cleavage is 0.203.

As for U52C C65A, the self-cleavage came to 1.2. Then G15U A61G, with 0.164; and A43G U63G, with 0.11.

In the case of A43G U63A, the self-cleavage is 0.134. Under U9G C18G stands 0.801. Then U20A G29A, with 0.101.

With C12U A71G, the self-cleavage was found to be 0.797. Under G19A C50A stands 0.278; under A31G U70G, 0.376; under A22G G68C, 0.182.

In the case of A30G C48U, the self-cleavage was determined as 0.19.

As to A22U A31U, the self-cleavage was 0.12.

For the variant G25U U67G, the self-cleavage was determined as 0.18. Under G56A G68A stands 0.119; under G21A G54A, 0.491; under U8G A41G, 0.673.

With G29C A36U, the self-cleavage is 0.0836. Under U33A U62A stands 0.148; under A28C U58C, 0.545. Then U9G A31C, with 0.0438; and A45G U67C, with 0.12. Then U33G A44U, with 0.23. For the variant U52A U63C, the self-cleavage turned out to be 0.32. Under C6U U53G stands 0.801; under G15A G21A, 0.831; under G15A G21C, 0.798. For U58A U60C, the self-cleavage was 0.715.

For the variant U7A G15A, the self-cleavage is 0.909. Then C12U A64U, with 0.241; and C12U A64G, with 0.564. Under A36C U63G stands 0.0757. As for A45C U60A, the self-cleavage was determined as 0.174. Then C3U G54U, with 0.227; and U8A G25A, with 0.432; and C3U U60G, with 0.331. Under U14C A35C stands 0.687. For the variant C3A C18G, the self-cleavage came to 0.602. Under A26G C48A stands 0.13. Then A26C U67A, with 0.0843; and U20A A71C, with 1.15; and C10U A44G, with 0.117.

Take G17C G56A: the self-cleavage was 0.0625. A39U U62G: the self-cleavage is 0.088. For the variant G40U U52A, the self-cleavage was found to be 0.207. Under A24G A28C stands 0.338.

In the case of G1C A61C, the self-cleavage stood at 0.249. For the variant C6G G19U, the self-cleavage is 0.201. Then A22G A64U, with 0.173; and U8A G69U, with 0.213; and G13C A44C, with 0.281. Under G17U G69A stands 0.382; under C6G G25C, 0.744; under G19A U60A, 0.658. Under C10A A28G stands 1.09; under C3A A23G, 0.613. In the case of G13A U14G, the self-cleavage is 0.538. Then U20C C66A, with 0.309. Turning to C6A C66A, the self-cleavage stood at 0.198.

With A35U A59G, the self-cleavage was determined as 0.18. Under U2G A71U stands 0.283; under G40A A45U, 0.149; under C16G G29U, 0.0825. Under A11U A44G stands 0.144; under A26G G32A, 0.103; under C18A U53C, 1.01.

Regarding U7C C48G, the self-cleavage turned out to be 0.145. Then C46G A61C, with 0.154. Then G19A G21C, with 0.673; and C16A C65U, with 0.242. Consider G17U A28C, for which the self-cleavage is 0.383. Then A36U A47G, with 0.172; and A30U U52C, with 0.135; and A30C U60C, with 0.279. Then A26G U67C, with 0.263; and G29C A64U, with 0.192; and A31U U33C, with 0.0766. Under G29C A44U stands 0.18; under G17A U60G, 0.581. As for G25C G40C, the self-cleavage stood at 0.102. Under G19C C66G stands 0.245. As for A26U C38A, the self-cleavage worked out at 0.188.

U7G U60A: the self-cleavage was 0.795.

For the variant C38U A41U, the self-cleavage was 0.742.

In the case of U5G G13C, the self-cleavage turned out to be 0.276.

With G13U A71G, the self-cleavage turned out to be 0.936. With C50G G68U, the self-cleavage turned out to be 0.22.

As to C18A A35G, the self-cleavage was determined as 1.05. Then C37G U67G, with 0.132. Under U9G G56A stands 0.18; under G15U U58A, 0.831; under U9A G57A, 0.141. On to G1U C50A, for which the self-cleavage amounted to 0.189. Then U14A A41U, with 1.04; and G25C G69U, with 0.199.

For the variant G25A A28U, the self-cleavage came to 0.585. Under G54C U55A stands 0.196; under A35G U70G, 0.711; under A23G U55G, 0.192.

Regarding C18A A36U, the self-cleavage was determined as 0.593.

In the case of C37G, the self-cleavage stood at 0.363. In the case of A24G A61U, the self-cleavage was 0.084. Then U9C G19C, with 0.485. As to G19A C46G, the self-cleavage turned out to be 0.176. As to G32U A47G, the self-cleavage was 0.0761.

For the variant C3A C65G, the self-cleavage turned out to be 0.314. Then G27U C38A, with 0.12; and C3G A26C, with 0.276; and U14C C38U, with 0.493. Turning to G21U G57U, the self-cleavage was 0.224. Under G29A C48A stands 0.131. As for G27A G54A, the self-cleavage turned out to be 0.221. For U8C G17U, the self-cleavage was determined as 0.554. Then U14C U70C, with 1.15; and C10U U14A, with 0.811. Under U8C A59C stands 0.183; under U8C G69U, 0.186. Then G17C A41C, with 0.983; and U7C U67A, with 0.167; and C10U A59U, with 0.124.

A44C U52G: the self-cleavage came out at 0.203. As to U14A A36G, the self-cleavage amounted to 0.864. Then G40U U60C, with 0.148.

For the variant U2G G32U, the self-cleavage worked out at 0.119. Under C4G A26G stands 0.16; under C6A G21A, 0.6. Then G54C U67C, with 0.109; and C3G G21C, with 0.154; and C18U A30G, with 0.151.

As to G34A A45U, the self-cleavage is 0.0941.

As for G15U A45C, the self-cleavage is 0.169. Take G17A A47C: the self-cleavage was determined as 0.319.

For the variant G1A C18G, the self-cleavage was found to be 0.0949.

Consider G32A G42A, for which the self-cleavage came out at 0.0757. With A43U A71G, the self-cleavage amounted to 0.247.

As for G68U A71C, the self-cleavage was found to be 0.329. Then U55C A71C, with 0.596. Then A39G A61G, with 0.123; and U60A A61G, with 0.216; and U60A G68C, with 0.236.

In the case of G19U A43C, the self-cleavage turned out to be 0.101. As for G34A C65A, the self-cleavage turned out to be 1.26. Then U8A U60A, with 0.755. Under A11G A24G stands 0.792; under C48A, 0.157.

For the variant C46U G51U, the self-cleavage was 0.256. Under C38A G68U stands 0.735.

Take U7C U58A: the self-cleavage came out at 0.565. Under C6A A41C stands 0.873; under G19A A35U, 0.607; under G19A A35C, 0.987. Take C12A U55A: the self-cleavage came out at 0.288. Then G32A U62C, with 0.128. Regarding C6G A49C, the self-cleavage came out at 0.0827. With G40U G56U, the self-cleavage came to 0.111. Then C37A U67A, with 0.197.
